The source of these data is paper PMC11398526.

Assay [1] deals with progesterone receptor isoform A (PR-A), full-length, Strep II tagged (human) (UniProt P06401). Put plainly: SEC-MALS.
Assay [2] has as its target steroid receptor coactivator 3 (SRC3), full-length, Strep II tagged (human) (UniProt Q9Y6Q9). Put plainly: SEC-MALS.

steroid receptor coactivator 3 (SRC3), full-length, Strep II tagged (human), sequence (Q9Y6Q9 whole entry): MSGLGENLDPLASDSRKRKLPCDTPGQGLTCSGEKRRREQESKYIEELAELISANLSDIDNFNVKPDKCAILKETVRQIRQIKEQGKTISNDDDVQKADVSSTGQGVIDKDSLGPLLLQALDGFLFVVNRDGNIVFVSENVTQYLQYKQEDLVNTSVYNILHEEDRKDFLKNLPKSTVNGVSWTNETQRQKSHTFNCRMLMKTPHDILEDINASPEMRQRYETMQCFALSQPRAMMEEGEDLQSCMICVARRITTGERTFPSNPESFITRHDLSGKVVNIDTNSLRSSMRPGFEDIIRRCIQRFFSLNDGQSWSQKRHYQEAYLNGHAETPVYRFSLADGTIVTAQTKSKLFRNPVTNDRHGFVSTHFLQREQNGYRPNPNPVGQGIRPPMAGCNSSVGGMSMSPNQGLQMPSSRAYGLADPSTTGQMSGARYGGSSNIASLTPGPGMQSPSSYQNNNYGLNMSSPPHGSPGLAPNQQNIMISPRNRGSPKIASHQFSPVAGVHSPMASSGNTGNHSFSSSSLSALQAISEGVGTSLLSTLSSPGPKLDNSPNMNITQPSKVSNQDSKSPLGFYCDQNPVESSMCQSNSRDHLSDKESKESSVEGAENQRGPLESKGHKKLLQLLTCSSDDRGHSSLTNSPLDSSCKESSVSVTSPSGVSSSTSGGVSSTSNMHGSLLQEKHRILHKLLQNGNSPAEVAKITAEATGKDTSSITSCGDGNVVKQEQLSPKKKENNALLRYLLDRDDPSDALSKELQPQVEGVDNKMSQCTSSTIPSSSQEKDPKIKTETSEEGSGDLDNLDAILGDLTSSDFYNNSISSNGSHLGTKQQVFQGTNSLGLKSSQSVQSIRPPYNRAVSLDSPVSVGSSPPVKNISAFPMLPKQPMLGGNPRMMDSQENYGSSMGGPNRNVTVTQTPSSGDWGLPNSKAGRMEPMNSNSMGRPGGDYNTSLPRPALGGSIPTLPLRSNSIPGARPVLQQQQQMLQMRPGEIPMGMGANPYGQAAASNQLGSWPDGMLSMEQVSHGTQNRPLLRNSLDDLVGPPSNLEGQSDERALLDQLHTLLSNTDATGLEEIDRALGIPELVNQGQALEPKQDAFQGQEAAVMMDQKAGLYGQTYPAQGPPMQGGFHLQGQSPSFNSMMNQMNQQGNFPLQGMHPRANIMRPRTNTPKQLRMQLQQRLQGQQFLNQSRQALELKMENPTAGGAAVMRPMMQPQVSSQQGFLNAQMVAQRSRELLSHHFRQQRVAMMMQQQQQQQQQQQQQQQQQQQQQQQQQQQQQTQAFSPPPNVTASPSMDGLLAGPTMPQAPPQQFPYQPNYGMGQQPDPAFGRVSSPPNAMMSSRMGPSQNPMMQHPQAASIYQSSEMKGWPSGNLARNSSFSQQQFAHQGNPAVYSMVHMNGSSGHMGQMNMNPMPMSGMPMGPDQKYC
progesterone receptor isoform A (PR-A), full-length, Strep II tagged (human), sequence (P06401 165-933): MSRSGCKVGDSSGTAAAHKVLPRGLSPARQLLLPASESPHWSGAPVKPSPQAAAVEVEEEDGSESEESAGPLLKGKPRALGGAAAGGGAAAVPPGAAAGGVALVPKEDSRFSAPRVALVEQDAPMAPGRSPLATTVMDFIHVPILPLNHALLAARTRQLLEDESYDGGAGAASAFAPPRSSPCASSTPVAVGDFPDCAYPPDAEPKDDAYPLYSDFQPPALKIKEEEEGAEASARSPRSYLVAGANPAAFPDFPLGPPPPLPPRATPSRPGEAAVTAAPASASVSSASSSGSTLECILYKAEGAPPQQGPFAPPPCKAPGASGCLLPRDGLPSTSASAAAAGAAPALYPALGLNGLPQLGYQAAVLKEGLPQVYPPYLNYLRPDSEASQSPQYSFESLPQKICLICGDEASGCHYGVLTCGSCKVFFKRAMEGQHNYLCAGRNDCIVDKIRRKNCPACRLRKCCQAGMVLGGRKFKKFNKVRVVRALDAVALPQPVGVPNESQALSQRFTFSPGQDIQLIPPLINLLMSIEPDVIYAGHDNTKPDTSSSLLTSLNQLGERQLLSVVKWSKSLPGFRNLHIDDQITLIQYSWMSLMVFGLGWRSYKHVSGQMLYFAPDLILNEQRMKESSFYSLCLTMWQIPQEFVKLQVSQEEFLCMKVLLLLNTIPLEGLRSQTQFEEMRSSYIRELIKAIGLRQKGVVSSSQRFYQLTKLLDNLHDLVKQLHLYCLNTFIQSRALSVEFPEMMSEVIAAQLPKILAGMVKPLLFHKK

On to “histone acetyltransferase p300, full-length, Strep II tagged, Q09472 1-2414”, for which the stoichiometry N (p300 per PR-A) in assay [1] amounted to 0.5. Also, in assay [2], the stoichiometry N (p300 per SRC3) was 1.
